# Reference: patent US20150086562A1 (BIOATLA, published 2015)
# T1: CD22 protein expressed on the surface of Daudi cells (human, UniProt P20273 20-847)
# T1 sequence (looked up): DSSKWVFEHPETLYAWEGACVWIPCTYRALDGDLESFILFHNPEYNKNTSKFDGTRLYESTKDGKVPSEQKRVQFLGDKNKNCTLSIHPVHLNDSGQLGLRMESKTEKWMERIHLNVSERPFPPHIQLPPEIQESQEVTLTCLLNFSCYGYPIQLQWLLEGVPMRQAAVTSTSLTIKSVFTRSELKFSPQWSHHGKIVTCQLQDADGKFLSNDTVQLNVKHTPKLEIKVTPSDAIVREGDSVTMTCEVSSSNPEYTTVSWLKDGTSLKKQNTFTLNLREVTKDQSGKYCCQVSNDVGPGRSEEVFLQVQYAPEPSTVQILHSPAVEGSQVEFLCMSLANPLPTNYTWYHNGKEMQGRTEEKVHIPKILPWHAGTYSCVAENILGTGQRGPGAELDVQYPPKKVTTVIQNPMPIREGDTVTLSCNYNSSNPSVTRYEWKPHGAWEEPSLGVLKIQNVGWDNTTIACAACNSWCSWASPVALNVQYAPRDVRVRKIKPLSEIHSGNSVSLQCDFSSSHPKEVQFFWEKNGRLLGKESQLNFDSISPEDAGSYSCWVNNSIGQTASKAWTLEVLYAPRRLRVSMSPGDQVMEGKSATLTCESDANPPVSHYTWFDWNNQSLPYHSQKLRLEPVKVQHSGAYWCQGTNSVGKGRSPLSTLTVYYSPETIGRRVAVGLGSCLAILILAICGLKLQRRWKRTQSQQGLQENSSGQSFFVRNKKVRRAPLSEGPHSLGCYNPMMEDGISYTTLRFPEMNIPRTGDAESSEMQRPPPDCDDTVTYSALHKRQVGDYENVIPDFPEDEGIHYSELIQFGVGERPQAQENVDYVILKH
# Columns and labels:
# [1] = molecular target: T1, CD22 protein expressed on the surface …; experiment: cell-based or functional assay
# [2] = molecular target: T1, CD22 protein expressed on the surface …; experiment: confocal immunofluorescence, FITC-labelled antibody on Daudi cells
# Experimental: Selected antiCD22 selected anti-CD22 Mab clones VM1000, VM1001, VM1002, VM1003, VM1004, VM1005, VM1006, VM1007, VM1008, VM1009, VM1010, VM1011, VM1012, VM1013, VM1014, and VM1015 of the invention were directly conjugated to F1TC using the Zenon labeling complex (Molecular Probes) using the manufacturer's recommended procedures. Approximately 1×10e7 Daudi cells were resuspended in PBS containing 5 ug/ml labeled anti-CD22 antibody and incubated for 45 minutes on ice. Cells then washed twice in PBS-FBS solution at 0 C. Cells were then incubated in RPMI 1640 media containing 10% FBS for varying periods at 37 C, harvested and washed in PBS at 0 C. The cells were then briefly fixed in 4% paraformaldehyde solution for 5 min at room temperature, then washed in PBS containing 0.05% Triton X-100. Cell pellets were collected by centrifugation and resupended in a minimal volume of FBS neat, and then applied to glass microscope slides. Prior to analysis, slides were treated with mounting fluid containing the nuclear stain DAPI, then coverslips were applied. Confocal images were recorded using an ACAS Ultima confocal microscope (Meridian Instruments, Inc., Okemos, Mich.) and represent 1-μm sections through the center of a focal plane using a 100× oil immersion objective.
# The Anti-CD22 monoclonal antibodies selected clones VM1000, VM1001, VM1002, VM1003, VM1004, VM1005, VM1006, VM1007, VM1008, VM1009, VM1010, VM1011, VM1012, VM1013, VM1014, and VM1015 of the invention were analysed for their ability to be rapidly internalized into the intracellular compartment as judged by immunoflourescent signal on the cell surface versus the intracellular endo cytotic compartment. The antibodies of the invention were compared to BA006H, and humanized version of the murine monoclonal antibody LL2. In this example, FIG. 21A, the anti-CD22 antibodies of the invention bind to CD22 protein expressed on the surface of Daudi cells by approximately 20-fold compared to BA006H as judged by relative mean fluorescence (RMF), and are virtually completely internalized within the cell with 90 minutes, localizing predominantly to within the perinuclear golgi apparatus and associated lysozomes. Shown in FIG. 21B is a chart of the RMF surface binding values obtained in this manner for individual anti-CD22 antibodies of the invention.
# [3] = molecular target: T2, recombinant CD22 extracellular domain; experiment: ELISA on plates coated with recombinant CD22 extracellular domain (coating 2, 0.2, 0.02 or 0.002 ug/ml per paragraph 227; the sheet does not say which), anti-human IgG-HRP, read at 450 nm
# T2 construct: Kept apart from m18, which is cell-surface CD22; also called CD22 (analyte in the BIAcore runs); CD22 ECD
# Experimental: Nunc-Immuno MaxiSorp 96 well plates were coated with 100 μl of 2 μg/ml, 0.2 μg/ml, 0.02 μg/ml or 0.002 μg/ml recombinant CD22 extracellular domain (PeproTech, Inc. catalog number 100-01 in coating solution (sodium bicarbonate in PBS). The plates were covered with plate sealer and incubated at 4° C. overnight. Plates were emptied and the residual liquid tapped out on paper towels. 200 μl washing solution (0.05% Tween-20 in PBS) was added and shaken at 200 RPM for 5 min at room temperature. The plates were emptied and residual liquid tapped out on paper towels. 200 μl blocking solution (2% Carnation milk in PBS) was added and shaken at 200 RPM for one hour at room temperature. Plates were emptied and residual liquid tapped out on paper towels. 100 μl of diluted samples containing VM1000, VM1001, VM1002, VM1003, VM1004, VM1005, VM1006, VM1007, VM1008, VM1009, VM1010, VM1011, VM1012, VM1013, VM1014, and VM1015 antibodies for ELISA were used. The samples were shaken at 200 RPM for one hour at room temperature; plates emptied and residual liquid tapped out on paper towels. 200 μl washing solution (0.05% Tween-20 in PBS) was added, shaken at 200 RPM for 5 min at room temperature; plates emptied and residual liquid tapped out on paper towels. This process was repeated three times. 100 μl of 1:2500 dilution of anti-human IgG conjugated with HRP diluted in block solution (2% Carnation milk in PBS) was added for all samples. 100 μl of 1:2500 dilution of anti-rabbit IgG conjugated with HRP diluted in block solution (2% Carnation milk in PBS) was added for control antibody. The contents were shaken at 200 RPM for one hour at room temperature, plates emptied and residue liquid tapped out on paper towels. 200 μl washing solution (0.05% Tween-20 in PBS) was added, shaken at 200 RPM for 5 min at room temperature; plates emptied and residual liquid tapped out on paper towels. This process was repeated three times. 100 μl TMB substrate solution was added, and incubated at room temperature. The reaction was stopped with 1 N HCl, and the plate read at 450 nm to determine relative binding affinity (FIG. 17).
Binder,"Daudi Internalization by FACS, % Shift [1] [%]",fold surface binding by relative mean fluorescence (RMF) compared to BA006H [2] [fold],ELISA OD 450 [3]
"VM1005 (antibody, V domains shown, Humanized antibody with human constant region; also called anti-CD22 Mab clone VM1005) VH: EVQLVQSGAEVKKPGATVKISCKVSGYVFTSYWLHWIRQSPSRGLEWLGYINPRNDYTEYNRIFKGRFVFSLDTSVSTAYLQICSLKAEDTAVYYCARRGITTFYWGQG VL: AIQLTQSPSSLSASVGDRVTITCKSSQSVLYSAVEKNYLAWYQQKPGQAPRLLIYWASTRERGVPSRFSGSGSGTDFTLTISSLQPEDFATYYCKQYLSSWTFGQG",86.4,~20,0.372
"VM1008 (antibody, V domains shown, Humanized antibody with human constant region; also called Anti-CD22 Ab VM1008; anti-CD22 Mab clone VM1008) VH: QVQLVQSGAEVKKPGASVKVSCKASGYVFTSYWLHWVRQARGQRLEWIGYINPRNDYTEYNRIFKGRVTITADKSTSTAYMELSSLRSEDTAVYYCARRGITTFYWGQG VL: DIQMTQSPSSLSASVGDRVTITCKSSQSVLYSAVEKNYLAWYQQKPGQAPRLLIYWASTRERGIPDRFSGSGSGTDFTLTISRLEPEDFAVYYCKQYLSSWTFGQG",69.4,~20,0.67

# Next, values leading:
"Daudi Internalization by FACS, % Shift [1] [%]",fold surface binding by relative mean fluorescence (RMF) compared to BA006H [2] [fold],ELISA OD 450 [3],Binder
69.4,~20,0.597,"VM1009 (antibody, V domains shown, Humanized antibody with human constant region; also called anti-CD22 Mab clone VM1009) VH: QVQLVQSGAEVKKPGASVKVSCKASGYVFTSYWLHWIRQSPSRGLEWLGYINPRNDYTEYNRIFKGRFVFSLDTSVSTAYLQICSLKAEDTAVYYCARRGITTFYWGQG VL: EIVLTQSPATLSLSPGERATLSCKSSQSVLYSAVEKNYLAWYQQKPGKAPKLLIYWASTRERGVPSRFSGSGSGTDFTFTISSLEAEDAATYYCKQYLSSWTFGQG"
87.5,~20,–,"VM1012 (antibody, V domains shown, Humanized antibody with human constant region; also called anti-CD22 Mab clone VM1012) VH: QVQLVQSGAEVKKPGASVKVSCKASGYVFTSYWLHWVRQAPGQGLEWMGYINPRNDYTEYNRIFKGRFTISRDNAKNSLYLQMNSLRAEDTAVYYCARRGITTFYWGQG VL: EIVLTQSPATLSVSPGERATLSCKSSQSVLYSAVEKNYLAWYQQKPGQAPRLLIYWASTRERGVPSRFSGSGSGTDFTFTISSLQPEDIATYYCKQYLSSWTFGQG"
65.7,~20,0.7,"VM1010 (antibody, V domains shown, Humanized antibody with human constant region; also called anti-CD22 Mab clone VM1010) VH: EVQLVQSGAEVKKPGESLRISCKVSGYVFTSYWLHWIRQSPSRGLEWLGYINPRNDYTEYNRIFKGRFTISRDNAKNSLYLQMNSLRAEDTAVYYCARRGITTFYWGQG VL: EIVLTQSPATLSLSPGERATLSCKSSQSVLYSAVEKNYLAWYQQKPGKAPKLLIYWASTRERGVPSRFSGSGSGTDFTFTISSLQPEDIATYYCKQYLSSWTFGQG"
88.8,~20,–,"VM1013 (antibody, V domains shown, Humanized antibody with human constant region; also called anti-CD22 Mab clone VM1013) VH: QVQLQESGPGLVKPSQTLSLTCTVSGYVFTSYWLHWIRQPPGKGLEWIGYINPRNDYTEYNRIFKGRFTISRDNAKNSLYLQMNSLRAEDTAVYYCARRGITTFYWGQG VL: AIQLTQSPSSLSASVGDRVTITCKSSQSVLYSAVEKNYLAWYQQKPGQAPRLLIYWASTRERGVPSRFSGSGSGTDFTLTISSLQPEDFATYYCKQYLSSWTFGQG"
